From the nanobody polyreactivity screen of Harvey et al. (2022)

Assay: yeast display, Sf9 membrane polyspecificity reagent, FACS + sequencing; frameworks hold sequencing errors
How it was run: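 Using colony PCR, genes from sorted yeast display clones were amplified, then sequenced on MiSeq at 2 × 250 and filtered by CDR length. The clones had been stained with 10% biotinylated, detergent-solubilized Sf9 membrane reagent for 1 hour at 4 °C and sorted by FACS into low and high (top ~1%) gates on anti-HA and streptavidin fluorescence. Polyreactivity labels come from the gate of origin.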

QVQLVESGGGLVQAGGSLRLSCAASGYTFDANDMGWYRQAPGTERELVARITWTGGNTYADSVKGRFTISRDNAKNTVYLQMNSLKPEDTAVYYCNAELGYVSSENYWGQGTQVTVTS
polyreactivity (PSR sort gate): low polyreactivity

QVQLVESGGGLVQAGGSLRLSCAASGSIFCYYAMGWYRQAPGKERELVAAINSGVRTYYADSVKGRFTISRDNAKNTVYLQMISLKPEDTAVYYCAARYIFKGLRYGYWGQGTQVTVSS
polyreactivity (PSR sort gate): high polyreactivity

QVQLVESGGGLVQAGGSLSLSCAASGRTFNSNAMGWYRQAPGKERELVAAISNRGTRTYYADSVKGRFTISRDNAKNTVYLQMNSLKPEDTAVYYCAASERDQRFKHYYWGQGTQVTVSS
polyreactivity (PSR sort gate): high polyreactivity

QVQLVESGGGLVQAGGSLRLSCAASGRIFKYYAMGWYRQAPGKERELVAAISARGGSTYYADSVKGRFTISRDNAKNTVYFQMNSLKPEDTAVYYCAAPYLTTQYERMYYWGQGTQVTVSS
polyreactivity (PSR sort gate): high polyreactivity

QVQHVESGGGLVQAGGSLRLSCAASGRTFTPNAMGWYRPPPGKVREMVAAIDWRGGRTYYADSVKGRFTISRDNAKNTVYLQKNSLKPEDTAVYYCAARVDGYQYKSAGYSYGVFYWGQGTQVTVSS
polyreactivity (PSR sort gate): low polyreactivity

QVQLVESGGGLVQAGGSLRLSCAASGSTFWYYAMGWYRQAPGKERELVASITYSGGSTYYADSVKGRFTISRDNAKNTVYLQMNSLKPEDTAVYYCAAEGYYSNYHFWGQGTQVTVSS
polyreactivity (PSR sort gate): low polyreactivity

QVQLVESGGGLVQAGGSLRLSCAASGRTFPFYAMGWYRQAPGKERELVADITSSGGSTYYADSVKGRFTISRDNAKNTVYLQINSLKPEDTAVYYCNKRPWTRFDSGQGTQVTVSS
polyreactivity (PSR sort gate): low polyreactivity

QVQLVESGGGLVQAGGSLRLICAASGFIFSSNAMGWYRQAPGKERELVAAITRSGGSTYYADSVKGRFTISRDNAKNTVYLQMNSLKPEDTAVYYCNAYVWRSGYDYWGQGTQVTVSS
polyreactivity (PSR sort gate): high polyreactivity

QVQLVQSGGGLVQAGGSLRLSCAASGNIISIYVMGWYRQAPGKERELVAAITSGGSTNYADSVKGRFTISRDNAKNTVYFQMNSLKPEDTAVYYCAAERNADDESYYWGQGSQVTVSS
polyreactivity (PSR sort gate): low polyreactivity

QVQLVESGGGLVQAGGSLRLSCAASGFIFKGYAMGWYRQAPGKERELVAAISQRGSSTYYADSVKGRFTISRDNAKNTVYLQMNSLKPEDTAVYYCNALRHSKLDYYSWGQGTQVTVSS
polyreactivity (PSR sort gate): high polyreactivity

QVQLVESGGGLVQAGGSLRLSCAASGRIFFANAMGWYRQAPGKERELVAAISWRGGSTYYADSVKGRFTISRDNAKNTFYLQMNSLKPEDTAVYYCNAVTRGYYHEMEYWGQGTQVTVSS
polyreactivity (PSR sort gate): high polyreactivity

QVQLVESGGGLVQAGGSLRLSCAASGSIIIGNAMGWYRPAPGKERELVAVINGSDGTTYYADSVKGRFTISRDTAKNTVYLQMNSLKPEDTAVYYCNADFIDPSVYDYNYWGQGTQVTVSS
polyreactivity (PSR sort gate): low polyreactivity

QVQLEESGAGLVQAGGRHRLSCPASGFIFDWNAMGWYRQPPGKERELVAAISDDGDSTDYADSVKGRFTISRDNAKNTVYLQMNSLKPEDTAVYSCAANTERVYPCFSFGYWGQGTQVTVSS
polyreactivity (PSR sort gate): low polyreactivity

QVQLVESGGGLVQAGGSLRLSCAASGRTFEGNAMGWYRQAPGKERELVAAISGSGGRTYYADSVKGRFTISRDHAKNTVYLPMNSLKPEHTAVYYATLYSVYNPWRFNYWGQGTQVTVSS
polyreactivity (PSR sort gate): high polyreactivity

QVQLVESGGGLVQAGGSLRLSGAASGRIFVRNAMGWYRQAPGKERELVADITNGGSTNYADSVKGRFTISRDNAKNTVYLQMNSLKPEDTAVYYCAADTLGVYDGDYWGQGTQVTVSS
polyreactivity (PSR sort gate): low polyreactivity

QVQRVESAGGLVQAGVSLRLSCAASGITFASNTMGWYRQAPGKARELVAAITRGDNTYYADSVKGRFTISRDNAKNTVYLHMNSLKPEDTAVYYCATEGYEIQYEHDYWGEGTQVTVSS
polyreactivity (PSR sort gate): low polyreactivity

QVQLVESGGGLVQAGGSLRLSCAASGRTFLGYAMGWYRQAPGKERELVAAISWDGTSTYYADSVKGRFTISRDNAKNTVYLQMNSLKPEDTAVYDCAAQLTDYQSKTLSYDYWGQGTQVTVSS
polyreactivity (PSR sort gate): low polyreactivity

QVQLVESGGGLVQAGGSLRLSCAASGSTFDYYAMGWYRQTPGNDRELVAALSWSGGSTYYADSVKGRFTISRDNAKNTVYLQMNSLKPEDTAVYYCATGTYCPRYNYFEGYYWGQGTQVTVSS
polyreactivity (PSR sort gate): high polyreactivity

QVQHVESGGGLVQAGVSLRLSCAASGSIFPYNAMGWYRQAPGKERELVATISSGGSTNYADSVKGRFTISRDNAKNTVYLQMNSLKPEDTAVYYCAGDVIVFYYAPNYWGDIEYGYWGQGTQVTVSS
polyreactivity (PSR sort gate): low polyreactivity

QVHLVESGGGLVQEGGSLPLTCAASGSTLRYYDMGWYRQPPRKERELFAAITTSGDDTYYADSVKRLFTISRDNAKYIVYLQMNSLKPEDTAVYYCAADGYGGHKYELESWGQGTQVTVSS
polyreactivity (PSR sort gate): low polyreactivity

QVQLVESGGGLVQAGGSLRLSCAASGRNFFTYAMGWYRQAPGKERELVASITGSGGSTYYADSVKGRFTISRDNAKYTVYLQMNSLKPEDTAVYYCAAALFRRQLYRKFYYWGQGTQVTVSS
polyreactivity (PSR sort gate): low polyreactivity

QVQLQESGGGLVQAGGSLRQSYAASGYIFPSLAMGWYRQAPGKEREFVAAIGRGSTNNYADSVKGRFTISRDNAKNTAYQQMNSLNPEDTAVYYCAAAASPLTRHLYWGQGTQVTVSS
polyreactivity (PSR sort gate): low polyreactivity

QVQLVESGGGLVQAGGSLRLICAASGYTFSDYAMGLYRQAPGKERELVAVISQSGGSTYYADSVKGRFTISRDNAKNTVYLQMNSLKPEDTAVYDCNVYPSRRRAVGESERYYWGQGTQVTVSS
polyreactivity (PSR sort gate): high polyreactivity

QVQLGESGGGLVQAGGSLRLSCAASGRIFTSYPMGWYRQAPGKERELVAAISRSGGSTYYADSVKGRFTISRDNAKNTVYLQMNSLKPEDTAVYYCAKARVVAGYDYWGQGTQVTVSS
polyreactivity (PSR sort gate): high polyreactivity

QVQLVESGGGLVQAGGSLRLSCAASGITFYKYVMGWYRQAPGKERELVAAITYSGGSTYYADSVKGRFTISRDYAKNTVYLQMYSLKPEDTAVYYCAKRRPALRWIYYYWGQGTQVTVSS
polyreactivity (PSR sort gate): high polyreactivity

QVQLVESGGGLVQAGGSLRLSCAASGIFGGYAMGWYRQAPGKERELVAAISYSGGTTYYADSVKGRFTISRDNAKNTVYLQMNSLKPEDTAVYYCNADDPDYLVSYRYDYWGQGTQVTVSS
polyreactivity (PSR sort gate): low polyreactivity

QVQLVESGGGLVQAGGSLRLSCAPSGRTFYWYTMGWYRQAPGKERELVAAISSSDGSTYYADSVKGRFTISRDNAKNTVYLQMNSLKPEDTAVYYCAADLYYYRYWYRFNYWGQGTQVTVSS
polyreactivity (PSR sort gate): high polyreactivity

QVQLVESGGGLVQAGGSLRLSCAASGRIFSYYAMLWYRQAPGKERELVATINSGGSTNYADSVKGRFTISRDNAKNTVYLQMNSLKPEDTAVYYCAASPVWWYDNWGQGTQVTVSS
polyreactivity (PSR sort gate): low polyreactivity

QVHLVESGGGLVQAGGSLRLSCAASGSTFQFNAMGWYRQAPGKERELVATISDGGSTSYADSVKGRFTISRDNAKNTVYLQMNSLKPEDTAVYFCARDRFYDFLRVDYWGQGTQVTVSS
polyreactivity (PSR sort gate): low polyreactivity

QVQLVESGGGLVQAGGSLRLSCAASGSILAHYAMGWYRQAPGKERELVAGISSGGSTNYADSVKGRFTISRDNAKNTVYLQMNSLKPEDTAVYYCNADQDFLFIGYLFDYWGQGTQVTVSS
polyreactivity (PSR sort gate): low polyreactivity

QVQLVESGGGLVQAGGSLRLSCAASGLTFWPYAMGWYRQAPGKERELVAAISSSGRTYYADSVKGRFTISRDNAKNTVYLQMNSLKPEDTAVYYCARRFWFHYYGYDYWGQGTQVTVSS
polyreactivity (PSR sort gate): high polyreactivity

QVQLVESGGGLVQAGGRLRLSCAASGRIFGRYAMGWYRQAPGKERELVAAITWTGGTTYYADSVKGRFTISRDNAKNTVYLQMNSLKPEDTAVYYCAARQGYGIYGDYYYWGQGTQVTVSS
polyreactivity (PSR sort gate): high polyreactivity

QVQLVESGAGLVQAGGSRRLSCAASGFTFKSYAMGLYRQAAGKERELVAAINRSGGSTYYADSVKGRFTISRDYAMNTVYLQMNSLSPDDTAVYYCAAVKPPDYYYWGQGTQVTVSS
polyreactivity (PSR sort gate): high polyreactivity

QVQLVESGGGLVQAGGSLRLSCAASGSIFKINAMGWYRQAPGKERELVAAITRSGGSTYYADSVKGRFTISRDNAKNTVYLQMNSLKPEDTAVYYCNASTSRRTSLSSRFYYWGQGTQVTVSS
polyreactivity (PSR sort gate): high polyreactivity

QVQLVESGGGLVQAGGSLRLSCAASGRTLWYYTMGWYRQAPGKERELVADITRGTSTNYADSVKGRFTISRDNAKNTVYLQMNSLKPEDTAVYYCNRAHGRSRYSRDYDSWGQGTQVTVSS
polyreactivity (PSR sort gate): low polyreactivity

QVQLVESGGGLVQAGGSLRLSCAASGSTFYPYFMGWYREAPGKERELVAAITYRGSTYYADSVKGRFTISRDNAKYTVYLQMNSLKPEDTAVYYCAAAVYAIDYTYYYWGQGTQVTVSS
polyreactivity (PSR sort gate): high polyreactivity

QVHLVDSGGGLVQAGGILRLSCSDYGSTFALYAMGWYRQSPGKVSELVAPITTSGGNTYYADSVKGRFTISRDNAKNTVYLQMNSLKPEDTAVYYCAADPWWSYTSYLRYYNLEMNYWGQGTQVTVSS
polyreactivity (PSR sort gate): high polyreactivity

QVQLVESGGGLVQAGGSLRLSCAASGFTFVNYAMGWYRQAPGKERELVAAISSGGRTYYADSVKGRFTISRDNAKNTVYLQMNSLKPEDTAVYYCAARYKGRAIWMDYWGQGTQVTVSS
polyreactivity (PSR sort gate): high polyreactivity

QVQLVESGGGLVQAGGSLRLSCAASGRTFINYAMGWYRQAPGKERELVAAITTGGRTNYADSVKGRFTISRDNAKNTVYLQMNILKPEDTAVYYCAADRYYWGRYTLNYWGQGTLVTVSS
polyreactivity (PSR sort gate): low polyreactivity

QVQLVESGGGLVQAGGSLRLSCAASGRIFNRNAKGWYRQAPGKERELVAAISSDTSTNYADSVKGRFTISRDNAKNTVYLQMNCLKPEDTAVYYCATKYGTSNWYNTYYYWGQGTQVTVSS
polyreactivity (PSR sort gate): low polyreactivity

QVQLVESGGGLVQAGGSLRLSCAASGRIFRFYAMGWYRQAPGKERELVAAITRNVGSTFYADSVKGRFTISRDNAKNTVYLQMNSLKPEDTAVYYCAAESDYYYRYTFDYWGQGTQVTVSS
polyreactivity (PSR sort gate): low polyreactivity

QVQLVESGGGLVQAGGSLRLSCAASGRIFPFYTMGWYRQAPGKERELVAAIRNAGSTKYADSVKGRFTISRDNAKNTVYLQMNSLKPEDTAVYYCNADLTRYRRYYWGQGTQVTVSS
polyreactivity (PSR sort gate): low polyreactivity

QVQLVESGGGLVQAGGSLRLSCAASGITFSYNAMGWYRQAPGKERQLVAAITWSGDSTYYADSVKGRFTISRDNAKNTVYLQMNSLKREDTAVYYCNARYLRLRYPYTDEYNYWGQGTQVTVSS
polyreactivity (PSR sort gate): low polyreactivity
